Experimental data published in US6410775.
Several values for one entry are separate records, joined by “and”; a condition that tells them apart may be missing. Equal entries are not always repeated. One block for each binder: values may come before it. Square brackets hold non-standard residues; d marks the D form. Ends that are not written are not given here. αMeP = C[C@@]1(C(=O)O)CCCN1

What was measured:
ACA-6501 aPL antibody [1] = assay: aPL antibody binding of modified 3B10 peptides
ACA-6501 aPL antibody [2] = assay: competitive ELISA on plate-bound tetravalent 3B10, ACA-6501 serum
ACA-6501 aPL antibody [3] = assay: competitive ELISA on plate-bound tetravalent 3B10
[4] = molecular target: ACA sera [1]-[10] of Table 7; assay: competitive ELISA; mean ± sd over the ten ACA sera
ACA-6501 aPL antibody [5] = assay: competitive ELISA, peptide at 1.8 mg/mL; members from Table 7
ACA-6626 aPL antibody [6] = assay: as above
ACA-6635 aPL antibody [7] = assay: as above
ACA-6638 aPL antibody [8] = assay: as above
ACA-6641 aPL antibody [9] = assay: as above
ACA-6644 aPL antibody [10] = assay: as above
ACA-6701 aPL antibody [11] = assay: as above
ACA-6903 aPL antibody [12] = assay: as above
ACA-7004 aPL antibody [13] = assay: as above
ACA-7005 aPL antibody [14] = assay: as above
ACA-6501 aPL antibody [15] = assay: competitive ELISA, ACA serum on cardiolipin/β2-GPI-coated plates
ACA-6626 aPL antibody [16] = assay: as above
ACA-6635 aPL antibody [17] = assay: as above
ACA-6638 aPL antibody [18] = assay: as above
ACA-6641 aPL antibody [19] = assay: as above
ACA-6701 aPL antibody [20] = assay: as above
ACA-6903 aPL antibody [21] = assay: as above
ACA-7004 aPL antibody [22] = assay: as above
ACA-7005 aPL antibody [23] = assay: as above
ACA-6644 aPL antibody [24] = assay: competitive ELISA, ACA serum (printed 664) on cardiolipin/β2-GPI-coated plates
[25] = molecular target: nine affinity purified ACA antibodies; assay: competitive ELISA on CL/β2-GPI plates, peptide monomer 1 mg/mL; average of nine ACA
ACA-6501 aPL antibody [26] = assay: competitive ELISA on CL/β2-GPI plates, peptide monomer 1 mg/mL, affinity-purified ACA
ACA-6626 aPL antibody [27] = assay: as above
ACA-6638 aPL antibody [28] = assay: as above
ACA-6641 aPL antibody [29] = assay: as above
ACA-6644 aPL antibody [30] = assay: as above
ACA-6701 aPL antibody [31] = assay: as above
ACA-6903 aPL antibody [32] = assay: as above
ACA-7004 aPL antibody [33] = assay: as above
ACA-7005 aPL antibody [34] = assay: as above
ACA-6501 aPL antibody [35] = assay: competitive ELISA I50; antibody not given, ACA-6501 serum on CL/β2-GPI assumed (Ex. 4B)

- fold enhancement in immunoreactivity against 3B10 (ACA-6501 aPL antibody [1]): 6 fold
- fold increase in activity against native 3B10 (ACA-6501 aPL antibody [2]): 4 fold
B1: peptide 727 (3B10 with αMe-Pro at the 9 position) (peptide)
peptide: AGPCLLLA[αMeP]DRCPG
modifications: cysteine pairing not given here

- fold increase of the 50% inhibition concentration against peptide 142 (ACA-6501 aPL antibody [3]): 8 fold
B2: peptide 139 (3B10 lacking the framework Ala-Gly at the amino terminus) (peptide)
peptide: PCLLLAPDRCPG

- IC50 [4]: 860 µg/mL
- percent inhibition (ACA-6501 aPL antibody [5]): 80%
- percent inhibition (ACA-6626 aPL antibody [6]): > 80%
- percent inhibition (ACA-6635 aPL antibody [7]): > 80%
- percent inhibition (ACA-6638 aPL antibody [8]): > 80%
- percent inhibition (ACA-6641 aPL antibody [9]): > 80%
- percent inhibition (ACA-6644 aPL antibody [10]): > 80%
- percent inhibition (ACA-6701 aPL antibody [11]): > 80%
- percent inhibition (ACA-6903 aPL antibody [12]): > 80%
- percent inhibition (ACA-7004 aPL antibody [13]): > 80%
- percent inhibition (ACA-7005 aPL antibody [14]): > 80%
- IC50 (ACA-6501 aPL antibody [15]): 890 µg/mL and 1100 µg/mL
- IC50 (ACA-6626 aPL antibody [16]): 1090 µg/mL
- IC50 (ACA-6635 aPL antibody [17]): 1000 µg/mL
- IC50 (ACA-6638 aPL antibody [18]): 810 µg/mL
- IC50 (ACA-6641 aPL antibody [19]): 890 µg/mL and 510 µg/mL
- IC50 (ACA-6701 aPL antibody [20]): 1070 µg/mL
- IC50 (ACA-6903 aPL antibody [21]): 800 µg/mL
- IC50 (ACA-7004 aPL antibody [22]): 670 µg/mL
- IC50 (ACA-7005 aPL antibody [23]): 750 µg/mL
- IC50 (ACA-6644 aPL antibody [24]): 760 µg/mL
- percent inhibition (Ave.) [25]: 97%
- percent inhibition (ACA-6501 aPL antibody [26]): 86%
- percent inhibition (ACA-6626 aPL antibody [27]): 100%
- percent inhibition (ACA-6638 aPL antibody [28]): 100%
- percent inhibition (ACA-6641 aPL antibody [29]): 93%
- percent inhibition (ACA-6644 aPL antibody [30]): 100%
- percent inhibition (ACA-6701 aPL antibody [31]): 100%
- percent inhibition (ACA-6903 aPL antibody [32]): 100%
- percent inhibition (ACA-7004 aPL antibody [33]): 100%
- percent inhibition (ACA-7005 aPL antibody [34]): 95%
- IC50 (ACA-6501 aPL antibody [35]): 850 µg/mL
B3: peptide ACA-6641/3G3 … (LJP 688) (peptide)
peptide: AGPCLGVLGKLCPG
